Like-named read-outs stand apart in the source and are kept apart here. Blank lines part the entries; values can stand above or below the binder they belong to.
What was measured:
Experiment in all cases: SPR
[1] = target: T1, FcgRIIb (human, UniProt P31994)
T1 chain: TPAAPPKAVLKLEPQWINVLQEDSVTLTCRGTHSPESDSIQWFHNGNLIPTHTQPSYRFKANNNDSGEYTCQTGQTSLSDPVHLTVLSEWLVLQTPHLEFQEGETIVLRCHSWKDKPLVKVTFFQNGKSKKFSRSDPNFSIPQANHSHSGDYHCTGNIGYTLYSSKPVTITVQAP

[2] = target: T2, FcgRIa (human, UniProt P12314)
T2 chain: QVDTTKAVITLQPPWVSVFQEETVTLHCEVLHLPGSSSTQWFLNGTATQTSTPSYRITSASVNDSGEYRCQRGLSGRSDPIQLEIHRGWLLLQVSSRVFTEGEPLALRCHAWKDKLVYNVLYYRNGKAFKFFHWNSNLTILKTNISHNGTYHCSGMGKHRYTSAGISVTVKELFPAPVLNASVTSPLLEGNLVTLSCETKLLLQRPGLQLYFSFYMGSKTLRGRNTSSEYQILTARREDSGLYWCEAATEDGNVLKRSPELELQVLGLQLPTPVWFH

[3] = target: T3, FcgRIIIa V (human, UniProt P08637)
[4] = target: T3, FcgRIIIa V; remark: listed apart in the source
[5] = target: T4, FcgRIIa H (human, UniProt P12318)
T4 chain: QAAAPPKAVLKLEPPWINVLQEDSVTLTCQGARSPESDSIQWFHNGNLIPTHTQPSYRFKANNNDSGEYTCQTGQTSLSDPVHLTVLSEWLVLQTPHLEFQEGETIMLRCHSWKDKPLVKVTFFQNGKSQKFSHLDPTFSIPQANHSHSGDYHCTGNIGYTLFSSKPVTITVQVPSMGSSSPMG

[6] = target: T5, FcgRIIa R (human, UniProt P12318)
T5 chain: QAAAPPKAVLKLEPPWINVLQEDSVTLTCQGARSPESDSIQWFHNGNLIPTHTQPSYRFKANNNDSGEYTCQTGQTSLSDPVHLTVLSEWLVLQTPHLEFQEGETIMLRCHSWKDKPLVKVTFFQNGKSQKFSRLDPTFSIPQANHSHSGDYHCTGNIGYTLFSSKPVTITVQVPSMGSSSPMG

[7] = target: T1, FcgRIIb
[8] = target: T4, FcgRIIa H
[9] = target: T2, FcgRIa
[10] = target: T3, FcgRIIIa V; remark: listed apart in the source
[11] = target: T6, FcgRIIIa F (human, UniProt P08637)
[12] = target: T5, FcgRIIa R
[13] = target: T6, FcgRIIIa F; remark: listed apart in the source

T3 sequence (P08637 17-208 F176V): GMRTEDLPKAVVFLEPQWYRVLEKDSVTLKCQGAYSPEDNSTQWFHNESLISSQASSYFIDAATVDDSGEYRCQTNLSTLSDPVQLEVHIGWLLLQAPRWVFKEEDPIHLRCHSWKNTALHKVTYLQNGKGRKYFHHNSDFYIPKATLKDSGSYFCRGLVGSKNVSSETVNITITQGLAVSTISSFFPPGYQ
T6 sequence (P08637 17-208): as the sequence (P08637 17-208 F176V) above, with V160F counted along it

- Kd [1]: 8.9 nM
- Kd [2]: 0.05 nM
- Kd [3]: 400 nM
- Kd [4]: 7100 nM
- Kd [5]: 860 nM
- Kd [6]: 2.3 nM
B1: IL6R-BP253/IL6R-L (antibody)
chain 1: QVQLQESGPGLVKPSETLSLTCAVSGHSISHDHAWSWVRQPPGEGLEWIGFISYSGITNYNPSLQGRVTISRDNSKNTLYLQMNSLRAEDTAVYYCARSLARTTAMDYWGEGTLVTVSSASTKGPSVFPLAPSSKSTSGGTAALGCLVKDYFPEPVTVSWNSGALTSGVHTFPAVLQSSGLYSLSSVVTVPSSSLGTQTYICNVNHKPSNTKVDKKVEPKSCDKTHTCPPCPAPELLGGPSVFLFPPKPKDTLMISRTPEVTCVVVDVEHEDPEVKFNWYVDGVEVHNAKTKPREEQYNSTYRVVSVLTVLHQDWLNGKEYKCKVSNKAFPAPIEKTISKAKGQPREPQVYTLPPSRDELTKNQVSLTCLVKGFYPSDIAVEWESNGQPENNYKTTPPVLDSDGSFFLYSKLTVDKSRWQQGNVFSCSVMHEALHNHYTQESLSLSP
chain 2: not shown

- Kd [7]: 5700 nM
- Kd [8]: 130 nM
- Kd [9]: 0.1 nM
- Kd [10]: 1 nM
- Kd [11]: 2.6 nM
- Kd [12]: 710 nM
B2: H240-Kn072/H240-Hl076/L73-k0 (antibody)
chain 1: QDQLVQSGAEVKKPGASVKVSCKASGFNIKDTYIQWVRQAPGQGLEWMGRIDPLRKQTKYREKFEGRVTITADTSTNTAYMELSSLRSEDTAVYYCVRSGREFDYWGQGTLVTVSSASTKGPSVFPLAPSSKSTSGGTAALGCLVKDYFPEPVTVSWNSGALTSGVHTFPAVLQSSGLYSLSSVVTVPSSSLGTQTYICNVNHKPSNTKVDKKVEPKSCDKTHTCPPCPAPEYYWGPSVFLFPPKPKDTLMISRTPEVTCVVVDVSDEEPEVKFNWYVDGVEVHNAKTKPREEQYNATYRVVSVLTVLHQDWLNGKEYKCKVSNKALPAPIEKTISKAKGQPREPQVCTLPPSRDELTKNQVSLWCLVKGFYPSDIAVEWESNGQPENNYKTTPPVLDSDGSFFLYSKLTVDKSRWQQGNVFSCSVMHEALHNHYTQKSLSLSP
chain 2: QDQLVQSGAEVKKPGASVKVSCKASGFNIKDTYIQWVRQAPGQGLEWMGRIDPLRKQTKYREKFEGRVTITADTSTNTAYMELSSLRSEDTAVYYCVRSGREFDYWGQGTLVTVSSASTKGPSVFPLAPSSKSTSGGTAALGCLVKDYFPEPVTVSWNSGALTSGVHTFPAVLQSSGLYSLSSVVTVPSSSLGTQTYICNVNHKPSNTKVDKKVEPKSCDKTHTCPPCPAPELLGGPSVFLFPPKPKDTLMISRTPEVTCVVVDVSHEEPEVKFNWYVDGVEVHNAKTKPREEQYNSTYRVVSVLTVLHQDWLNGKEYKCKVSNDALPMPIEETISKAKGQPREPQVYTLPPSRCELTKNQVSLSCAVKGFYPSDIAVEWESNGQPENNYKTTPPVLDSDGSFFLVSKLTVDKSRWQQGNVFSCSVMHEALHNHYTQKSLSLSP
chain 3: DIQMTQSPSSLSASVGDRVTITCRASQDIHKYIAWYQQKPGQAPRLLIQYTSTLQPGVPSRFSGSGSGTDYTFTISSLQPEDIATYYCLQYEQLRTFGGGTKVEIKRTVAAPSVFIFPPSDEQLKSGTASVVCLLNNFYPREAKVQWKVDNALQSGNSQESVTEQDSKDSTYSLSSTLTLSKADYEKHKVYACEVTHQGLSSPVTKSFNRGEC

- Kd [13]: 11 nM
B3: GpH7-A53/GpH7-B78/GpL16-k0 (antibody)
chain 1: QVQLVQSGAEVKKPGASVTVSCKASGYTFTDYEMHWIRQPPGEGLEWIGAIDPKTGDTAYSESFQDRVTLTADKSTSTAYMELSSLTSEDTAVYYCTRFYSYTYWGQGTLVTVSSASTKGPSVFPLAPSSKSTSGGTAALGCLVKDYFPEPVTVSWNSGALTSGVHTFPAVLQSSGLYSLSSVVTVPSSSLGTQTYICNVNHKPSNTKVDKKVEPKSCDKTHTCPPCPAPELLGGPDVFLFPPKPKDTLMISRTPEVTCVVVDVSHEDPEVKFNWYVDGVEVHNAKTKPREEQYNSTYRVVSVLTVLHQDWLNGKEYKCKVSNKALPAPIEKTISKAKGQPREPQVYTLPPSRKELTKNQVSLTCLVKGFYPSDIAVEWESNGQPENNYKTTPPVLDSDGSFFLYSKLTVDKSRWQQGNVFSCSVMHEALHNRYTQKSLSLSP
chain 2: QVQLVQSGAEVKKPGASVTVSCKASGYTFTDYEMHWIRQPPGEGLEWIGAIDPKTGDTAYSESFQDRVTLTADKSTSTAYMELSSLTSEDTAVYYCTRFYSYTYWGQGTLVTVSSASTKGPSVFPLAPSSKSTSGGTAALGCLVKDYFPEPVTVSWNSGALTSGVHTFPAVLQSSGLYSLSSVVTVPSSSLGTQTYICNVNHKPSNTKVDKKVEPKSCDKTHTCPPCPAPELLGGPDVFLFPPKPKDTLMISRTPEVTCVVVDVSHEDPEVKFNWYVDGVEVHNAKTKPREEQYNSTYRVVSVLTVLHQDWLNGKEYKCKVSNKALPLPEEKTISKAKGQPREPQVYTLPPSRDELTKNQVSLTCLVKGFYPSDIAVEWESNGQPENNYKTTPPVLDSDGSFFLYSKLTVDKSRWQQGNVFSCSVMHEALHNHYTQESLSLSP
chain 3: DIVMTQSPLSLPVTPGEPASISCQASESLVHSNRNTYLHWYLQKPGQSPQLLIYKVSNRFSGVPDRFSGSGSGTDFTLKISRVEAEDVGVYYCSQNTHVPPTFGQGTKVEIERTVAAPSVFIFPPSDEQLKSGTASVVCLLNNFYPREAKVQWKVDNALQSGNSQESVTEQDSKDSTYSLSSTLTLSKADYEKHKVYACEVTHQGLSSPVTKSFNRGEC

From patent US10766960 (dated 2020)
